According to paper PMC4751086, “Structural Study of the HD-PTP Bro1 Domain in a Complex with the Core Region of STAM2, a Subunit of ESCRT-0” (PLoS ONE, 2016):

T1: HD-PTP(1–361) (human, UniProt Q9H3S7 1-361)
T1 construct: also called HD-PTP Bro1 domain; PTPN23; source: E. coli BL21(DE3) RIL, purified (Ni-NTA, TEV protease, gel filtration); not shown: (His)6, N-terminal, cleaved
T1 sequence (looked up): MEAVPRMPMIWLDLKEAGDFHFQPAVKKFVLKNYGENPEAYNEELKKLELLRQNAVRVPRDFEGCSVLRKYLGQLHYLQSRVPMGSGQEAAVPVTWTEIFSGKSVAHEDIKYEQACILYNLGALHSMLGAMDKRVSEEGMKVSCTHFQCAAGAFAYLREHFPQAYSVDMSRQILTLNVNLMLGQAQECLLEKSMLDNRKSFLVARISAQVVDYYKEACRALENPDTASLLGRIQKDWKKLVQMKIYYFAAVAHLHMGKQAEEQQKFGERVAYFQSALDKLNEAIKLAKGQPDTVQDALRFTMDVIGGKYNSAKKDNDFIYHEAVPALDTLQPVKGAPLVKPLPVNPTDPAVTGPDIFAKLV

T2: HD-PTP(1–361) with T145A substitution (human, UniProt Q9H3S7 1-361, T145A)
T2 construct: source: E. coli BL21(DE3) RIL, purified (Ni-NTA, gel filtration)
T2 sequence (looked up): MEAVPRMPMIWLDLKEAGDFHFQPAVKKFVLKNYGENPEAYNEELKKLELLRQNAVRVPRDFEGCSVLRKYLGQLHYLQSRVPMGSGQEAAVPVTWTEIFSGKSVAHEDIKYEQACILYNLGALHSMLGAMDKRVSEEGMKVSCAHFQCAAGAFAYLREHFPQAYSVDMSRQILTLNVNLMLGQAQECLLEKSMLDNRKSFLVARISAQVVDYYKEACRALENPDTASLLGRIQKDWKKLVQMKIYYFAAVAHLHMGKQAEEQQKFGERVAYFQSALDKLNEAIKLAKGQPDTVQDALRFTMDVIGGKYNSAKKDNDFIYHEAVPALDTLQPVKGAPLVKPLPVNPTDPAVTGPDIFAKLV

T3: HD-PTP(1–361;T145R) (human, UniProt Q9H3S7 1-361, T145R)
T3 construct: source: E. coli BL21(DE3) RIL, purified (Ni-NTA, gel filtration)
T3 sequence (looked up): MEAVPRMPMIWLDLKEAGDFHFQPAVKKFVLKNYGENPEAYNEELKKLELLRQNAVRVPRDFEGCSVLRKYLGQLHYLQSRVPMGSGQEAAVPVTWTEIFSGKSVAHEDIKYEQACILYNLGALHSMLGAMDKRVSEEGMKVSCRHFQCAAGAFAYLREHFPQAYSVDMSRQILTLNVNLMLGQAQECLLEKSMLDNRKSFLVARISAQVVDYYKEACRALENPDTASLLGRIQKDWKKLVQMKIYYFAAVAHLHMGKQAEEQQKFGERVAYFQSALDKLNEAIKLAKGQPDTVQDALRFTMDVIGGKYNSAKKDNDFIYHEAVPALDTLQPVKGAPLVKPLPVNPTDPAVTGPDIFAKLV

T4: HD-PTP(1–361;T145K) (human, UniProt Q9H3S7 1-361, T145K)
T4 construct: source: E. coli BL21(DE3) RIL, purified (Ni-NTA, gel filtration)
T4 sequence (looked up): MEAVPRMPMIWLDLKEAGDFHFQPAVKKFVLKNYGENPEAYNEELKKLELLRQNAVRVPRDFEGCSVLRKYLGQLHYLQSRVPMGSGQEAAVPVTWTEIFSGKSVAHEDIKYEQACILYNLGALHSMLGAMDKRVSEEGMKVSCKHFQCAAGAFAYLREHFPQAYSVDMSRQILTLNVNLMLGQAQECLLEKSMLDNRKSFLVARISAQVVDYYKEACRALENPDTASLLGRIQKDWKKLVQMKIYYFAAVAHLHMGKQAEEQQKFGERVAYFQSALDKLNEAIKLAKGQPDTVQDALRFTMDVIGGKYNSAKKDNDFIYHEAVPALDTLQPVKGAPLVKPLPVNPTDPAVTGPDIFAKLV

B1: STAM2(311–370) (domain or fragment)
chain: not shown
notes: source: E. coli BL21(DE3) RIL, purified (Ni-NTA, gel filtration)
B2: CHMP4B(207–224) (peptide, UniProt Q9H444 207-224, looked up)
peptide: KEEEDDDMKELENWAGSM
notes: CHMP4B, residues 207–224 (18-mer; the polypeptide terminates with Met224); also called CHMP4B peptide of 18-mer (residues 207–224); charged multivesicular body protein 4B; source: synthetic peptide, bought: Peptron (Korea)
B3: STAM2(260–370) (domain or fragment)
chain: not shown
notes: STAM2, human, core region, residues 260–370; also called STAM2 core region containing residues 260–370; signal-transducing adaptor molecule 2; source: E. coli BL21(DE3) RIL, purified (Ni-NTA, gel filtration)

How the values were obtained:
Details in all cases: both partners purified
HD-PTP(1–361) [1] = biological target: T1, HD-PTP(1–361); assay: SEC; Superose 6 10/300 GL gel filtration column; mixture of HD-PTP(1–361) and STAM2 fragment; peak fractions analysed by SDS-PAGE and Coomassie staining
[2] = biological target: T2, HD-PTP(1–361) with T145A substitution; assay: ITC; 0.5 mM peptide titrated into 50 μM protein; iTC200; 2°C as printed; 20 mM Tris-HCl (pH 7.5), 100 mM NaCl
HD-PTP(1–361;T145R) = biological target: T3, HD-PTP(1–361;T145R); assay: as above
HD-PTP(1–361) [3] = biological target: T1, HD-PTP(1–361); assay: as above
HD-PTP(1–361;T145K) = biological target: T4, HD-PTP(1–361;T145K); assay: as above

Binder | binding result (HD-PTP(1–361) [1]) | Kd [2] [µM] | Kd (HD-PTP(1–361;T145R)) [µM] | Kd (HD-PTP(1–361) [3]) [µM] | Kd (HD-PTP(1–361;T145K)) [µM]
B1 | binds | – | – | – | –
B2 | – | < 8 | < 8 | < 8 | < 8
B3 | binds | – | – | – | –
